# Data as given in PMC3205837.
# B1: DHFR promoter E2F site, wild type (dsDNA)
# DNA 1: AGCTTCTAGTGCAATTTCGCGCCAAACTTGG
# DNA 2: AATTCCAAGTTTGGCGCGAAATTGCACTAGA
# How the values were obtained:
# Test in all cases: EMSA
# GST-N-γtubulin1-333 = GST-N-γtubulin1-333 (human, UniProt P23258 1-333)
# GST-γ-tubulin = GST-γ-tubulin (human, UniProt P23258 1-451)
# GST-γ-tubulin;His-E2F1 = GST-γ-tubulin;His-E2F1 (human;human, UniProt P23258;Q01094 1-451;1-437, |)
# Chain of GST-γ-tubulin;His-E2F1 (P23258 whole entry, chain 1 of 2): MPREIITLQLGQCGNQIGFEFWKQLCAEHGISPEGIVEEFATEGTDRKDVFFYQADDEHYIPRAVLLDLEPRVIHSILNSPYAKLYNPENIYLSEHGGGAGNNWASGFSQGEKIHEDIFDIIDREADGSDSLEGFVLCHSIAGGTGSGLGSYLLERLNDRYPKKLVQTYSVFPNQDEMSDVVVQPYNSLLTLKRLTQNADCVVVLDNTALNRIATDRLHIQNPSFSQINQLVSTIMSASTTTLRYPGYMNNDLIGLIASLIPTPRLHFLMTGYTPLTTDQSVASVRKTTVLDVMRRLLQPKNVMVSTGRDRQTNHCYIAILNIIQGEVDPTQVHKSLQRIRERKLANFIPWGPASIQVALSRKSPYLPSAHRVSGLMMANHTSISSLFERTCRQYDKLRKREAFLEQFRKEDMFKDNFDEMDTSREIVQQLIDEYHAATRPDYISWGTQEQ
# Chain of GST-γ-tubulin;His-E2F1 (Q01094 whole entry, chain 2 of 2): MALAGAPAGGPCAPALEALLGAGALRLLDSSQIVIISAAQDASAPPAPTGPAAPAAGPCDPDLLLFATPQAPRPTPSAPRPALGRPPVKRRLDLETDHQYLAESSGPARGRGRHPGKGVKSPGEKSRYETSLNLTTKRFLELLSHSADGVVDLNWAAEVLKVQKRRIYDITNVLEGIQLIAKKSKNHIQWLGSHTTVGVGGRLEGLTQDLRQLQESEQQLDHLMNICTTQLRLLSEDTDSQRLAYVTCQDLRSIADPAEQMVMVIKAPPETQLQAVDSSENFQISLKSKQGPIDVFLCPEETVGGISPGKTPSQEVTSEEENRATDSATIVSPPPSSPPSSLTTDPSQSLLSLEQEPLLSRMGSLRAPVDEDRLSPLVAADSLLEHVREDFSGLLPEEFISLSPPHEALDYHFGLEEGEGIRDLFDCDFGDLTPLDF
# Chain of GST-γ-tubulin (P23258 whole entry): as the sequence (P23258 whole entry, chain 1 of 2) above
# Chain of GST-N-γtubulin1-333 (P23258 1-333): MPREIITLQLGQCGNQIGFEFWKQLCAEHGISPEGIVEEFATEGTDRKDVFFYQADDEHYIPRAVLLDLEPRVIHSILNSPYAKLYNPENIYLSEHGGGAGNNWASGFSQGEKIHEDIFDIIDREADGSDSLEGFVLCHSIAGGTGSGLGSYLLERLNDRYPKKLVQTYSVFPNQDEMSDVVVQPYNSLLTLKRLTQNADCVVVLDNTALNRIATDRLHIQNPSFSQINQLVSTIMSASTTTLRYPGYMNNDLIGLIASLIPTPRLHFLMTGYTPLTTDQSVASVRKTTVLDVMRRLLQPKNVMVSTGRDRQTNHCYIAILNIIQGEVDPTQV
binder,measurement,setting,value
B1,binding result,GST-N-γtubulin1-333,no binding
same,binding result,GST-γ-tubulin,binds
same,binding result,GST-γ-tubulin;His-E2F1,binds
